Source: patent US20240043512A1
Values belong to the binder of their own block, whether it stands above or below them.

Molecular target: IM-CA22
Experiment: competition ELISA: 0.5 µg/mL peptide added to prevent the binding of AS-SPIK with IM-CA22; inhibition rate from OD value with vs without peptide

IM-CA22, sequence (VH, as listed by the source, chain 1 of 2): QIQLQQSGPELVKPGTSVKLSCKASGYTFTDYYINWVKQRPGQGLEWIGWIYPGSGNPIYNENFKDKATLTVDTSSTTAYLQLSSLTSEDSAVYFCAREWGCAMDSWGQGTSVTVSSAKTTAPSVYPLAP
IM-CA22, sequence (VL, as listed by the source, chain 2 of 2): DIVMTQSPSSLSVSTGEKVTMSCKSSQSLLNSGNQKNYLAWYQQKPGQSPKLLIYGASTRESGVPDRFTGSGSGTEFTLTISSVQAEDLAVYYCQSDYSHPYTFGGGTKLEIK

B2: SPIK5 (peptide)
peptide: SGNTGADSL
Inhibition %: 5%

B4: SPIK7 (peptide)
peptide: SLSGNTGAD
Inhibition %: 6%

More lines, now with the values ahead:

Inhibition %: 6%
B1: SPIK4 (peptide)
peptide: GNTGADSLG

Inhibition %: 6%
B3: SPIK6 (peptide)
peptide: LSGNTGADS
